Measured values as given in patent publication US8481333B2 (IDEXX Laboratories, Inc., priority 2011, dated 2013).
Entries after “also recorded” stand apart in the source; their conditions may differ.

Tests used:
[1] = format: in vitro ADME, feline
Procedure: For plasma extraction, 100 uL of plasma was precipitated by addition of 200 uL methanol in a 1.5 mL protein LoBind eppendorf tube. After vortexing for 10 seconds, the precipitate was pelleted by centrifugation at 13,000 rpm for 15 minutes at 10° C. using a benchtop centrifuge. The supernatant was transferred to a limited volume glass HPLC vial and analyzed by LC/MS as described in the following examples.
To characterize the fsNT-proBNP stable degradation products present after incubation in feline plasma, fsNT-proBNP was added to feline plasma at 1, 5, and 10 μg/mL and incubated at room temperature. At 0, 24, 48, 96, and 192 hours, 100 μL aliquots of the plasma were collected and combined with 200 μL of methanol to form a precipitate. After centrifugation, the supernatant was analyzed for stable peptides by LC/MS as described in Example 1.
The relative abundance of several fragments from the N-terminal, capture, and C-terminal regions were evaluated over time.

feline plasma = settings: room temperature, up to 192 hours

Sequence	prevalence of polypeptide fragments in plasma [1]	fragment found (feline plasma)
ASEASAIQELLDGLRDTVSEL (Preferred Feline NT-proBNP N-Terminal Peptide Plasma Degradent) [SEQ ID NO: 5]	most prevalent	
HPLGGPGPASEASAIQELLDGLRDTVSELQEAQMALGPLQQGHSPAESWEAQEEPPARVLAPHDNVLRALRRLGSSKM		ASEASAIQELLDGLRDTVSEL, major; also recorded: DGLRDTVSEL; also recorded: LDGLRDTVSELQEAQM; also recorded: LGPLQQGHSPAESWEAQEEPPAR; also recorded: LGPLQQGHSPAESWEAQEEPPARVLAPHDNVLR, major; also recorded: LQQGHSPAESWEAQEEPPARVLAPHDNVLR, major; also recorded: VLAPHDNVLR
LGPLQQGHSPAESWEAQEEPPARVLAPHDNVLR (Preferred Feline NT-proBNP C-Terminal Peptide Plasma Degradent) [SEQ ID NO: 9]	most prevalent	
LQQGHSPAESWEAQEEPPARVLAPHDNVLR (Preferred Feline NT-proBNP C-Terminal Peptide Plasma Degradent) [SEQ ID NO:10]	most prevalent	
